Experimental data published in article PMC5645793 (Journal of toxicology and environmental health. Part A, 2009).
Values belong to the molecule of their own block, whether it stands above or below them.

Columns and labels:
human lens ALDH1A1 [1] = molecular target: T1, human lens ALDH1A1 (Homo sapiens, UniProt P00352); type: biochemical
T1 sequence (P00352 1-501): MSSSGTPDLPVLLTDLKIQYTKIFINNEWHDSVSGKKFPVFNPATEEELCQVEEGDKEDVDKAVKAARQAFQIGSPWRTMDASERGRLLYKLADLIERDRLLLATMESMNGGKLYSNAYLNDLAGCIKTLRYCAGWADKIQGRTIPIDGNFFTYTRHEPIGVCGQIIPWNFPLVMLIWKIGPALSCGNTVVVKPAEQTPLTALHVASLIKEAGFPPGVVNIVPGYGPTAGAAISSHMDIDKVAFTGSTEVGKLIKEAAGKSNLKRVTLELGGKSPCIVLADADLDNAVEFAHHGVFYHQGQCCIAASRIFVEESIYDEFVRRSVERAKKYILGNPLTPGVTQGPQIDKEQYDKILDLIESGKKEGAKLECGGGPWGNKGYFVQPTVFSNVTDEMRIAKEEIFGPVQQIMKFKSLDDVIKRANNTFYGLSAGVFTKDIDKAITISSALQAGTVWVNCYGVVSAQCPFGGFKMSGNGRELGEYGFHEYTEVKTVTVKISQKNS

human lens ALDH1A1 [2] = molecular target: T1, human lens ALDH1A1; type: biochemical; remark: listed apart in the source
purified protein [3] = substrate: CCCCCC(O)C=CC=O; test: purified protein; settings: NAD+ probably both the substrates fit the active site well
purified protein [4] = substrate: CCC=O; test: purified protein; type: biochemical, Homo sapiens; settings: NAD+
purified protein [5] = substrate: NC(=O)c1ccc[n+]([C@@H]2O[C@H](COP(=O)([O-])OP(=O)(O)OC[C@H]3O[C@@H](n4cnc5c(N)ncnc54)[C@H](O)[C@@H]3O)[C@@H](O)[C@H]2O)c1; test: purified protein; type: biochemical, Homo sapiens; settings: may interfere with NO binding to catalytic site; varied: cofactor
purified protein [6] = substrate: O=CCC=O; test: purified protein; type: biochemical, Homo sapiens; settings: NAD+ probably both the substrates fit the active site well
purified protein [7] = substrate: O=Cc1ccccc1; test: purified protein; type: biochemical, Homo sapiens; settings: NAD+

- IC50 (human lens ALDH1A1 [1]): 55 µM
Molecule: CC(C)=CCCC(C)=CC=O [citral, 3,7-dimethyl-2,6-octadienal]

- EC50 (human lens ALDH1A1 [2]): 11.3 µM
Molecule: CC/C(=C(/CC)c1ccc(O)cc1)c1ccc(O)cc1 [diethylstilbestrol]

B1: human lens ALDH1A1 (Homo sapiens) (protein)
chain: MSSSGTPDLPVLLTDLKIQYTKIFINNEWHDSVSGKKFPVFNPATEEELCQVEEGDKEDVDKAVKAARQAFQIGSPWRTMDASERGRLLYKLADLIERDRLLLATMESMNGGKLYSNAYLNDLAGCIKTLRYCAGWADKIQGRTIPIDGNFFTYTRHEPIGVCGQIIPWNFPLVMLIWKIGPALSCGNTVVVKPAEQTPLTALHVASLIKEAGFPPGVVNIVPGYGPTAGAAISSHMDIDKVAFTGSTEVGKLIKEAAGKSNLKRVTLELGGKSPCIVLADADLDNAVEFAHHGVFYHQGQCCIAASRIFVEESIYDEFVRRSVERAKKYILGNPLTPGVTQGPQIDKEQYDKILDLIESGKKEGAKLECGGGPWGNKGYFVQPTVFSNVTDEMRIAKEEIFGPVQQIMKFKSLDDVIKRANNTFYGLSAGVFTKDIDKAITISSALQAGTVWVNCYGVVSAQCPFGGFKMSGNGRELGEYGFHEYTEVKTVTVKISQKNS
- Km (purified protein [3]): 4.8 ± 0.12 µM
- Vmax (purified protein [3]): 0.135 ± 0.0152 µmol/min/mg
- Km (purified protein [4]): 121.4 ± 6.7 µM
- Vmax (purified protein [4]): 0.445 µmol/min/mg
- Km (purified protein [5]): 59.4 ± 2.4 µM
- Vmax (purified protein [5]): 0.15 µmol/min/mg
- Km (purified protein [6]): 3.5 ± 0.6 µM
- Vmax (purified protein [6]): 0.382 µmol/min/mg
- Km (purified protein [7]): 143.2 ± 6.4 µM
- Vmax (purified protein [7]): 0.75 µmol/min/mg
